Results taken from publication PMC3362863 (Traffic (Copenhagen, Denmark), 2011).

Molecular target: the molecule itself
Experiment: cross-linking

Protein | stoichiometry N
P2X4-GFP (receptor, UniProt P51577 1-388, looked up) MAGCCSVLGSFLFEYDTPRIVLIRSRKVGLMNRAVQLLILAYVIGWVFVWEKGYQETDSVVSSVTTKAKGVAVTNTSQLGFRIWDVADYVIPAQEENSLFIMTNMIVTVNQTQSTCPEIPDKTSICNSDADCTPGSVDTHSSGVATGRCVPFNESVKTCEVAAWCPVENDVGVPTPAFLKAAENFTLLVKNNIWYPKFNFSKRNILPNITTSYLKSCIYNAQTDPFCPIFRLGTIVEDAGHSFQEMAVEGGIMGIQIKWDCNLDRAASLCLPRYSFRRLDTRDLEHNVSPGYNFRFAKYYRDLAGKEQRTLTKAYGIRFDIIVFGKAGKFDIIPTMINVGSGLALLGVATVLCDVIVLYCMKKKYYYRDKKYKYVEDYEQGLSGEMNQ | 3
CHC-TFE3 fusion protein, Flag- or Myc-tagged (other, human, UniProt Q00610 1-932, looked up) MAQILPIRFQEHLQLQNLGINPANIGFSTLTMESDKFICIREKVGEQAQVVIIDMNDPSNPIRRPISADSAIMNPASKVIALKAGKTLQIFNIEMKSKMKAHTMTDDVTFWKWISLNTVALVTDNAVYHWSMEGESQPVKMFDRHSSLAGCQIINYRTDAKQKWLLLTGISAQQNRVVGAMQLYSVDRKVSQPIEGHAASFAQFKMEGNAEESTLFCFAVRGQAGGKLHIIEVGTPPTGNQPFPKKAVDVFFPPEAQNDFPVAMQISEKHDVVFLITKYGYIHLYDLETGTCIYMNRISGETIFVTAPHEATAGIIGVNRKGQVLSVCVEEENIIPYITNVLQNPDLALRMAVRNNLAGAEELFARKFNALFAQGNYSEAAKVAANAPKGILRTPDTIRRFQSVPAQPGQTSPLLQYFGILLDQGQLNKYESLELCRPVLQQGRKQLLEKWLKEDKLECSEELGDLVKSVDPTLALSVYLRANVPNKVIQCFAETGQVQKIVLYAKKVGYTPDWIFLLRNVMRISPDQGQQFAQMLVQDEEPLADITQIVDVFMEYNLIQQCTAFLLDALKNNRPSEGPLQTRLLEMNLMHAPQVADAILGNQMFTHYDRAHIAQLCEKAGLLQRALEHFTDLYDIKRAVVHTHLLNPEWLVNYFGSLSVEDSLECLRAMLSANIRQNLQICVQVASKYHEQLSTQSLIELFESFKSFEGLFYFLGSIVNFSQDPDVHFKYIQAACKTGQIKEVERICRESNCYDPERVKNFLKEAKLTDQLPLIIVCDRFDFVHDLVLYLYRNNLQKYIEIYVQKVNPSRLPVVIGGLLDVDCSEDVIKNLILVVRGQFSTDELVAEVEKRNRLKLLLPWLEARIHEGCEEPATHNALAKIYIDSNNNPERFLRENPYYDSRVVGKYCEKRDPHLACVAYERGQCDLELINLPVSGNLLDVYSSQGVATPAITVSNSCPAELPNIKREISETEAKALLKERQKKDNHNLIERRRRFNINDRIKELGTLIPKSSDPEMRWNKGTILKASVDYIRKLQKEQQRSKDLESRQRSLEQANRSLQLRIQELELQAQIHGLPVPPTPGLLSLATTSASDSLKPEQLDIEEEGRPGAATFHVGGGPAQNAPHQQPPAPPSDALLDLHFPSDHLGDLGDPFHLGLEDILMEEEEGVVGGLSGGALSPLRAASDPLLSSVSPAVSKASSRRSSFSMEEES | 2
